The record followed here is PMC3988998, “Molecular Mechanism of Antibody-Mediated Activation of β-galactosidase” (Structure(London, England:1993), 2014).

In the test the target is T1, Escherichia coli β-galactosidase (E. coli, UniProt P00722 = β-galactosidase).
T1 construct: β-galactosidase of E. coli, encoded by lacZ; Wild-type commercial enzyme; source: bought: Sigma catalog no; G3153
As to the kind of experiment: cryo-EM structure; β-gal mixed with scFv13R4 in a 1:10 stoichiometric ratio (2.5-fold excess), 1 hr on ice; single-particle cryo-EM, map at ~13 Å; rigid-body docking of β-gal (1F4A) and of the HyHEL-10 Fv (3A6B). The following applies: both partners purified.

T1 sequence (P00722 whole entry): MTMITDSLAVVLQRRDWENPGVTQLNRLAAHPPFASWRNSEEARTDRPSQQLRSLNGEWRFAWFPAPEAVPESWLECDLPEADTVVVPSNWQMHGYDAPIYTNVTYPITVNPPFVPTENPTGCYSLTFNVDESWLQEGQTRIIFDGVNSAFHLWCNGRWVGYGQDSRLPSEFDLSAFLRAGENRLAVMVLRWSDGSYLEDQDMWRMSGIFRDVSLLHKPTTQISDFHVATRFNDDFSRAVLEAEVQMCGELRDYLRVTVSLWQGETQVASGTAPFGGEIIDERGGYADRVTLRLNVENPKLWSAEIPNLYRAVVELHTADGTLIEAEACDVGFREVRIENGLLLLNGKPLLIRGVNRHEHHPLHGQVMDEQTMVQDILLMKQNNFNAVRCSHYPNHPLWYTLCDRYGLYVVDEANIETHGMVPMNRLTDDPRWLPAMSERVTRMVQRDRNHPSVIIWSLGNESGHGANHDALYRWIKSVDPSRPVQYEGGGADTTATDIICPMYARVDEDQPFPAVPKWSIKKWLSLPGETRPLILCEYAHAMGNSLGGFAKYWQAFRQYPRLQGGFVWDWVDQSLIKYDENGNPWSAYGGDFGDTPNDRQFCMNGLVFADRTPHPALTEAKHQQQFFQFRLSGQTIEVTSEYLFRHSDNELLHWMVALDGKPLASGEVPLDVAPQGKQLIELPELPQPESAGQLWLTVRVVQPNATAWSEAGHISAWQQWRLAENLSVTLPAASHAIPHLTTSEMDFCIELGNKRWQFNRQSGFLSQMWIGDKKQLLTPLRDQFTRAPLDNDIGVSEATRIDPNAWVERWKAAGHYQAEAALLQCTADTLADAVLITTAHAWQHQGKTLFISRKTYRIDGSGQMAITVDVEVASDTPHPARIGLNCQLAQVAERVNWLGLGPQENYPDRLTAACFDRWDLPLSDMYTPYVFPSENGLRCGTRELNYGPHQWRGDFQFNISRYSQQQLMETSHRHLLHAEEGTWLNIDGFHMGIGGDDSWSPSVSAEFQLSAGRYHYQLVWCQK

B1: scFv13R4 (scFv, V domains shown)
VH: EVQLVESGGSLVKPGGSLRLSCAASGFTFSNYSMNWVRQAPGKGLEWISSISGSSRYIYYADFVKGRFTISRDNATNSLYLQMNSLRAEDTAVYYCVRSSITIFGGGMDVWGRGTLVTVSS
VL: QSVLTQPASVSGSPGQSITISCAGTSSDVGGYNYVSWYQQHPGKAPKLMIYEDSKRPSGVSNRFSGSKSGNTASLTISGLQAEDEADYYCSSYTTRSTRVFGGGTKLAVL
notes: model of the complex deposited as PDB 4CKD, built by docking the HyHEL-10 Fv of PDB 3A6B; 28 kDa single-chain Fv selected for cytoplasmic expression (Martineau et al., 1998); The preparation held GroEL as an impurity; also called Fv antibody; source: E. coli strain PM12 (BL21 (DE3) pLysS with a lacZ:Tn5 mutation), pET 16b, purified (nickel-nitrilotriacetic acid column)
Consider B1, for which the “stoichiometry N” value is 1 Fv per β-gal subunit.

Broadly, the stoichiometry N is a count of units in the complex or per binding partner.
